Assay results taken from the supplement of paper PMC9233669.
This sample holds only a part of the variants without activity.

Legend:
biotinyl-Phe-oxazolone = test: self-aminoacylation, catalytic enhancement (BFO) (fold over background); higher = more active; k-Seq, kA / k0A0; sequences stand for … in GGGAAUGGAUCCACAUCUACGAAUUC…UUCACUGCAGACUUGACGAAGCUG
Summary of the method: (§1)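 Mutagenized RNA pools (0.43 μM; 21-nt variable region) were treated with 2–1250 μM of each biotinyl-aminoacyl-oxazolone. Conditions were 50 μL HEPES/NaCl/KCl/MgCl2/CaCl2 buffer, 5% acetonitrile, pH 6.9–7.0, room temperature, 90 minutes. Catalytic enhancement, the median kA relative to the uncatalyzed rate, was derived from streptavidin capture, qPCR and Illumina sequencing.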

biotinyl-Ile-oxazolone = test: self-aminoacylation, catalytic enhancement (BIO) (fold over background); higher = more active; k-Seq, kA / k0A0; sequences stand for … in GGGAAUGGAUCCACAUCUACGAAUUC…UUCACUGCAGACUUGACGAAGCUG
Summary of the method: as §1

biotinyl-Met-oxazolone = test: self-aminoacylation, catalytic enhancement (BMO) (fold over background); higher = more active; k-Seq, kA / k0A0; sequences stand for … in GGGAAUGGAUCCACAUCUACGAAUUC…UUCACUGCAGACUUGACGAAGCUG
Summary of the method: as §1

biotinyl-Val-oxazolone = test: self-aminoacylation, catalytic enhancement (BVO) (fold over background); higher = more active; k-Seq, kA / k0A0; sequences stand for … in GGGAAUGGAUCCACAUCUACGAAUUC…UUCACUGCAGACUUGACGAAGCUG
Summary of the method: as §1

biotinyl-Leu-oxazolone = test: self-aminoacylation, catalytic enhancement (BLO) (fold over background); higher = more active; k-Seq, kA / k0A0; sequences stand for … in GGGAAUGGAUCCACAUCUACGAAUUC…UUCACUGCAGACUUGACGAAGCUG
Summary of the method: as §1

biotinyl-Trp-oxazolone = test: self-aminoacylation, catalytic enhancement (BWO) (fold over background); higher = more active; k-Seq, kA / k0A0; sequences stand for … in GGGAAUGGAUCCACAUCUACGAAUUC…UUCACUGCAGACUUGACGAAGCUG
Summary of the method: as §1

| Sequence | self-aminoacylation (biotinyl-Phe-oxazolone) | self-aminoacylation (biotinyl-Ile-oxazolone) | self-aminoacylation (biotinyl-Met-oxazolone) | self-aminoacylation (biotinyl-Val-oxazolone) | self-aminoacylation (biotinyl-Leu-oxazolone) | self-aminoacylation (biotinyl-Trp-oxazolone) |
| --- | --- | --- | --- | --- | --- | --- |
| CUACUUCAAACAAACAGUCUG [Fam1A.1 aminoacylation ribozyme variant] | 0.8 | 0.864 | 0.54 | 0.728 | 0.671 | 0.534 |
| AUGCACAUAGGUCAUCGGGUG [Fam2.2 aminoacylation ribozyme variant] | 73.3 | 6.5 | 10.5 | 6.08 | 10.2 | 10.4 |
| CCACACUUCGGGCAAUCGGUC [Fam1B.1 aminoacylation ribozyme variant] | 9.3 | 2.1 | 2.73 | 3.09 | 2.48 | 2.23 |
| AUUACCCUGAUCAUCGAGAGA [Fam2.1 aminoacylation ribozyme variant] | 0.905 | 1.02 | 0.577 | 0.913 | 0.765 | 0.629 |
| AAGUUUGGUAAUAGUCGCACG [Fam3.1 aminoacylation ribozyme variant] | 1.98 | 1.18 | 1.07 | 1.11 | 1.45 | 1.09 |
| AUUACUCUGGUCAUCGAGUGA [Fam2.1 aminoacylation ribozyme variant] | 6.25 | 3.77 | 6.63 | 3.78 | 6.98 | 7.48 |
| AUCACGCUGGUCAUCGAGUGA [Fam2.1 aminoacylation ribozyme variant] | 33.1 | 4.36 | 6.1 | 4.4 | 5.91 | 6.96 |
| GUACUUCAAACAAGCGGUCUG [Fam1A.1 aminoacylation ribozyme variant] | 5.04 | 1.78 | 1.42 | 1.49 | 1.63 | 2.06 |
| AAUACCCUGGGCAUCGAGUGA [Fam2.1 aminoacylation ribozyme variant] | 8.76 | 1.8 | 3.75 | 2.29 | 3.79 | 3.44 |
| CCACACUUCACGCAAUUGGUC [Fam1B.1 aminoacylation ribozyme variant] | 0.859 | 0.951 | 0.667 | 1.03 | 0.957 | 0.792 |
| AAGUUUGCUAGUAGUCGCAAG [Fam3.1 aminoacylation ribozyme variant] | 1.13 | 0.746 | 0.745 | 0.773 | 0.706 | 0.851 |
| CUAAUUGAAACAAUCGGUCUG [Fam1A.1 aminoacylation ribozyme variant] | 0.706 | 0.78 | 0.944 | 0.775 | 0.752 | 0.64 |
| CUAAUUCAAACUAUCGGUCUG [Fam1A.1 aminoacylation ribozyme variant] | 1.1 | 0.978 | 1.09 | 0.936 | 0.938 | 0.685 |
| AUUUCCCUGGUCAUCGAGUGG [Fam2.1 aminoacylation ribozyme variant] | 12 | 3.66 | 7.95 | 3.99 | 8.26 | 7.09 |
| AUUACCUUGGUCUUCGAGUGA [Fam2.1 aminoacylation ribozyme variant] | 32.9 | 3.43 | 6.13 | 4.04 | 6.52 | 7.78 |
| CCACACUUCAAGCAAUCCGAC [Fam1B.1 aminoacylation ribozyme variant] | 0.729 | 0.612 | 0.516 | 0.703 | 0.586 | 0.28 |
| AUUCACAUAGGUCAUCGGCUG [Fam2.2 aminoacylation ribozyme variant] | 7.68 | 1.72 | 1.64 | 1.78 | 1.61 | 1.89 |
| AUCAACCUGGUCAUCGAGUGA [Fam2.1 aminoacylation ribozyme variant] | 43.5 | 5.12 | 10 | 4.81 | 11.9 | 9.87 |
| AUUACCCUGCUCAUCGAGAGA [Fam2.1 aminoacylation ribozyme variant] | 0.77 | 0.834 | 0.805 | 0.975 | 0.702 | 0.698 |
| AUCACCCUGAUCAUCGAGUGA [Fam2.1 aminoacylation ribozyme variant] | 62.3 | 4.86 | 10.8 | 4.32 | 10.2 | 10.9 |
| AUUAACCUGCUCAUCGAGUGA [Fam2.1 aminoacylation ribozyme variant] | 2.51 | 1.55 | 2.38 | 1.86 | 2.5 | 2.54 |
| AUUAUCCUGGUCAUCGGGUGA [Fam2.1 aminoacylation ribozyme variant] | 69.6 | 7.1 | 14.1 | 7.7 | 17.1 | 17.4 |
| CCACACUUCCAGCAAUCGAUC [Fam1B.1 aminoacylation ribozyme variant] | 0.92 | 0.83 | 0.673 | 0.959 | 0.579 | 0.611 |
| CCACACUUCAAGCCGUCGGUC [Fam1B.1 aminoacylation ribozyme variant] | 0.678 | 1.41 | 1.47 | 1.49 | 1.57 | 1 |
| CCAUACUGCAAGCAAUCGGUC [Fam1B.1 aminoacylation ribozyme variant] | 1.06 | 1.14 | 1.15 | 1.14 | 0.996 | 0.938 |
| AUUACCCGGGUCCUCGAGUGA [Fam2.1 aminoacylation ribozyme variant] | 47.4 | 3.5 | 5.42 | 3.84 | 7.78 | 7.11 |

| Sequence | self-aminoacylation (biotinyl-Phe-oxazolone) | self-aminoacylation (biotinyl-Ile-oxazolone) | self-aminoacylation (biotinyl-Met-oxazolone) | self-aminoacylation (biotinyl-Val-oxazolone) | self-aminoacylation (biotinyl-Leu-oxazolone) | self-aminoacylation (biotinyl-Trp-oxazolone) |
| --- | --- | --- | --- | --- | --- | --- |
| ACACACUUCAAGCAAUAGGUC [Fam1B.1 aminoacylation ribozyme variant] | 1.57 | 0.894 | 0.828 | 0.976 | 0.737 | 0.901 |
| AUUCACCUGGGUCAGCGGGUG [Fam2.2 aminoacylation ribozyme variant] | 36.7 | 4.33 | 5.26 | 4.26 | 6.66 | 4.72 |
| AAUCACCUAGCUCAUCGGGUG [Fam2.2 aminoacylation ribozyme variant] | 17.7 | 2.33 | 2.82 | 3.17 | 2.31 | 3.68 |
| CUACUUCUAACAAUCGGACUG [Fam1A.1 aminoacylation ribozyme variant] | 0.602 | 0.566 | 0.398 | 0.572 | 0.495 | 0.419 |
| AUUAACCUGGUCAUCGUGUGA [Fam2.1 aminoacylation ribozyme variant] | 13.1 | 1.69 | 3.13 | 1.82 | 3.13 | 3.69 |
| CCACACUUCAAGCAGUCGGUG [Fam1B.1 aminoacylation ribozyme variant] | 18.4 | 2.18 | 2.34 | 2.29 | 3.56 | 2.1 |
| CUACUUCAAUCAAUCGGUCUU [Fam1A.1 aminoacylation ribozyme variant] | 19.8 | 1.23 | 1.07 | 1.11 | 1.35 | 10.6 |
| AUUACCCUGGUCUUCGACUGA [Fam2.1 aminoacylation ribozyme variant] | 0.68 | 0.992 | 0.832 | 0.737 | 0.717 | 0.675 |
| AUUCACGUAGGUCAUCGGGUG [Fam2.2 aminoacylation ribozyme variant] | 53.2 | 4.22 | 6.62 | 5.15 | 7.22 | 6.49 |
| AUUCACCUAGGGCAUCGCGUG [Fam2.2 aminoacylation ribozyme variant] | 26.7 | 3.12 | 3.5 | 3.89 | 2.92 | 2.95 |
| AUGACCCUGGUCAUCCAGUGA [Fam2.1 aminoacylation ribozyme variant] | 38.6 | 3.84 | 6.57 | 3.16 | 7.02 | 7.7 |
| GUUCACCUAGGUCAUCCGGUG [Fam2.2 aminoacylation ribozyme variant] | 45.4 | 5.36 | 6.69 | 5.33 | 6.89 | 7.53 |
| AUUCGCCUAGUUCAUCGGGUG [Fam2.2 aminoacylation ribozyme variant] | 16.2 | 2.26 | 2.85 | 2.8 | 3.82 | 3.62 |
| AUUACCCUGACCAUCGAGUGA [Fam2.1 aminoacylation ribozyme variant] | 8.94 | 3.01 | 4.2 | 2.95 | 4.95 | 5.06 |
| AACUUUGCUAAUGGUCGCAAG [Fam3.1 aminoacylation ribozyme variant] | 9.47 | 2.47 | 2.44 | 2.43 | 2.64 | 3.24 |
| CCACACUUCAAGCAGUCUGUC [Fam1B.1 aminoacylation ribozyme variant] | 0.562 | 0.339 | 0.383 | 0.478 | 0.353 | 0.305 |
| AUUUAUCUAGGUCAUCGGGUG [Fam2.2 aminoacylation ribozyme variant] | 20.1 | 3.08 | 3.91 | 2.45 | 4.97 | 4.3 |
| CUAGUUCAAACAAACGGUCUG [Fam1A.1 aminoacylation ribozyme variant] | 0.831 | 0.913 | 0.814 | 0.77 | 0.91 | 0.823 |
| CUACUUCAAACAAGCGCUCUG [Fam1A.1 aminoacylation ribozyme variant] | 0.571 | 0.868 | 0.654 | 0.86 | 0.852 | 0.842 |
| CUACUUCAAACAUUUGGUCUG [Fam1A.1 aminoacylation ribozyme variant] | 0.677 | 1.13 | 0.873 | 0.984 | 0.802 | 0.678 |
| CCACUCUUCAAGCAAUCGGUU [Fam1B.1 aminoacylation ribozyme variant] | 2.51 | 1.53 | 1.53 | 1.6 | 1.16 | 2.27 |
| AAGUUUGCUAAUAAUCGCAAC [Fam3.1 aminoacylation ribozyme variant] | 0.842 | 0.8 | 1.06 | 0.975 | 0.773 | 1.18 |
| CUACUUCAAACAGUCGGUAUG [Fam1A.1 aminoacylation ribozyme variant] | 0.447 | 0.6 | 0.587 | 0.552 | 0.532 | 0.554 |
| AUUCACCUAGGUUAGCGGGUG [Fam2.2 aminoacylation ribozyme variant] | 19.7 | 2.55 | 2.98 | 2.22 | 2.9 | 3.43 |
| AAGUAUGCUAAUAGCCGCAAG [Fam3.1 aminoacylation ribozyme variant] | 5.73 | 1.49 | 1.06 | 1.05 | 1.16 | 2.58 |
